{
  "source": "paper PMC7613103",
  "about": "(Science signaling, 2020)",
  "molecules": {"B1": {"name": "UBE2S (full-length, untagged, purified), Q16763 1-222 (enzyme)", "chain": "MNSNVENLPPHIIRLVYKEVTTLTADPPDGIKVFPNEEDLTDLQVTIEGPEGTPYAGGLFRMKLLLGKDFPASPPKGYFLTKIFHPNVGANGEICVNVLKRDWTAELGIRHVLLTIKCLLIHPNPESALNEEAGRLLLENYEEYAARARLLTEIHGGAGGPSGRAEAGRALASGTEASSTDPGAPGGPGGAEGPMAKKHAGERDKKLAAKKKTDKKRALRRL"}, "B2": {"name": "UBE2S C95S (full-length) (enzyme)", "chain": "MNSNVENLPPHIIRLVYKEVTTLTADPPDGIKVFPNEEDLTDLQVTIEGPEGTPYAGGLFRMKLLLGKDFPASPPKGYFLTKIFHPNVGANGEISVNVLKRDWTAELGIRHVLLTIKCLLIHPNPESALNEEAGRLLLENYEEYAARARLLTEIHGGAGGPSGRAEAGRALASGTEASSTDPGAPGGPGGAEGPMAKKHAGERDKKLAAKKKTDKKRALRRL"}},
  "key": {"[1]": {"target": "Cys118 (UniProt position 118, LLTIKCLLIHP)", "test": "chemical modification", "settings": "10 °C; 100 mM NaCl; Free reduced enzyme, 14.4 μM, no ubiquitin or other ligand"}, "[2]": {"target": "Cys95 (UniProt position 95, ANGEICVNVLK)", "test": "chemical modification", "settings": "10 °C; 100 mM NaCl; Free reduced enzyme, 14.4 μM, no ubiquitin or other ligand"}, "[3]": {"target": "UBE2S^UBC (UBC domain of UBE2S, residues 1-156) (human) (UniProt Q16763)", "test": "cross-linking + SEC-MALS"}, "[4]": {"target": "T1, UBE2S (full-length, untagged, purified) (human), Q16763", "T1 chain": "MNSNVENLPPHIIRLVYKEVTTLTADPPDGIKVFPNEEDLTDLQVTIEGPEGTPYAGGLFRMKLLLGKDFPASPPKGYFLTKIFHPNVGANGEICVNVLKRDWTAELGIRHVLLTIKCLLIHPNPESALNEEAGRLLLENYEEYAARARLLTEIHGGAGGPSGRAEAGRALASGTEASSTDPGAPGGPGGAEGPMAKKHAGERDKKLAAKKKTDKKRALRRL", "test": "cross-linking + SEC-MALS", "settings": "remark: other sources report otherwise"}, "[5]": {"target": "the molecule itself", "test": "cross-linking"}},
  "data": [
    {"molecule": "Ubiquitin-conjugating enzyme E2 S (UBE2S) C95S variant (Homo sapiens; C95S)", "values": [
      {"measurement": "pKa", "setting": "[1]", "result": "9.4 ± 0.1"}
    ]},
    {"molecule": "Ubiquitin-conjugating enzyme E2 S (UBE2S) C118S variant (Homo sapiens; C118S)", "values": [
      {"measurement": "pKa", "setting": "[2]", "result": "6.4 ± 0.2"}
    ]},
    {"molecule": "UBE2S^UBC (UBC domain of UBE2S, residues 1-156) (from UniProt Q16763 1-156) (domain or fragment)", "values": [
      {"measurement": "stoichiometry N", "setting": "[3]", "result": 2}
    ]},
    {"molecule": "B1", "values": [
      {"measurement": "stoichiometry N", "setting": "[4]", "result": 2}
    ]},
    {"molecule": "B2", "values": [
      {"measurement": "binding result", "setting": "[5]", "result": "binds"}
    ]}
  ]
}
